Test: label from the status in PepcDB records

For “MRIGVIMGGVSSEKQVSIMTGNEMIANLDKNKYEIVPITLNEKMDLIEKAKDIDFALLALHGKYGEDGTVQGTLESLGIPYSGSNMLSSGICMDKNISKKILRYEGIETPDWIELTKMEDLNFDELDKLGFPLVVKPNSGGSSVGVKIVYDKDELISMLETVFEWDSEVVIEKYIKGEEITCSIFDGKQLPIISIRHAAEFFDYNAKYDDASTIEEVIELPAELKERVNKASLACYKALKCSVYARVDMMVKDGIPYVMEVNTLPGMTQASLLPKSADAAGIHYSKLLDMIIETSLRVRKEEGF”, the protein production was “not failed”.

With “MLTGRRYLLAFTPEQEEFAEKIGDACRVVWNTALEQRRQYRRRGAFIGYVEQARQMAEAKKDFPWLAEAPSHTLQQTLRDLERACKTHGTFKVRWRSKRKNAPTFRFPDPKQITVERISRRWGRVKLPKLGWTRFRWTRPLGGQLRNATVLKDGGRWYISFCVEDGLMESAPNGKPPVGVDRGVTVAVATSSGWMRDREFVTPGEAVRLKRLQQQLARQRKGSNRRAATRAKLTKLNARIRARRTDFLAWTANRLTCDHGLVVVEDLNIRNMTASAKGTLAEPGRNVAAKAGLNRAILAKGWGGLLTALEHKARYHGSRILRVPPAFTSQTCHACGHCAPDNRESQAEFRCRACGHQANADVNAAKNILAAGLAVTGRGDLAVGRSVKRQPPKVEAA” the protein production was “failed”.

With “MGEVFQKEAYAQELIDYYNQSTNDVLKRTASISENEKPRVLFLVYDQRKNSYWTPGGEFYQNNLITMAGGKTVSSDLPTGKAQINVEQAASWNPDVIITSAHTMEYPSTKVKEDVLTDEGWKEINAVKSGNVYAMPFDGESWDTLGSKYVLGLYWTAKTLEHHHHHH” the protein production was “not failed”.

With “MKVNKFITIYKDIAQQIEGGRWKAEEILPSEHELTAQYGTSRETVRKALHMLAQNGYIQKIRGKGSVVLNREKMQFPVSGLVSFKELAQTLGKETKTTVHKFGLEPPSELIQKQLRANLDDDIWEVIRSRKIDGEHVILDKDYFFRKHVPHLTKEICENSIYEYIEGELGLSISYAQKEIVAEPCTDEDRELLDLRGYDHMVVVRNYVFLEDTSLFQYTESRHRLDKFRFVDFARRGK” the protein production was “not failed”.

In the case of “MQPWTQIYTPLGSLWLSALAAAIPILFFFVALAVLRMKGHVAAAVTLALALAVAIFAYGMPAQQAFAAAGFGFAYGLWPIAWIIVTAVFLYKIVVKTGQFDVIRASVLSITDDQRLQMLLIGFAFGAFLEGAAGFGAPVAITAALLVGLGFNPLYAAGLCLIANTAPVAFGAMGIPIIVAGQVTGIDPMHIGAMAGRQLPLLSLAVPFWLVFMMDGAKGVRETWPAALVVGGSFAVTQYFTSNHIGPELPDITSALVSLISLAAFLRVWQPRSASQAAGGTVAAGGTVAMAGFGGGMGAPASRKASPYTFGQTVRAWAPFGILTAIVTVWSLAPFKALFAGNGALAGTVLKFKVPMLDQLVIKSAPIVASPKPYEAVLKLDLLSAVGTAILLTAIISAVLLRMKPSDAITTFKETLLELRRPIASIGLVLAFAFVANYSGMSSTLALLLAGTGAAFPFFSPLLGWLGVFLTGSDTSSNALFCSLQHTTAHQIGVSDTLLVAANTTGGVTGKMISPQSIAVACAATGLVGKESELFRFTVKHSLLFAAIVGVITMIQAYWLTGMIPG”, the protein production is reported as “failed”.

For “MSQRLILFSRYPEPGRSKTRLIPALGPEGAADLQRQLTEWTVFTAHCWQARSPQTEVLIATSGGTSEAWQQWLGAVEVQPQAEGDLGDRLHQAFQDSWQVGCDRTVIIGSDCPQIEPHHLDEAFAVLQQADVVIGPASDGGYWLIGLSQPQPQLFQNIDWGSDRVLVQTLEAAQVADLQVAQLESLSDLDRPEDLNLWQPQPQLSVIITTLNEAANLPQTLALIGDAPVETLVVDGGSQDATVAIAQAWGAKVIHSPAGRGRQFNQGAAAAHGNILLFLHGDTRLPPRFWEHVLQTLQPPQVVAGAFQLQIDSPDWRLRWIERGVRWRSHWLQQPYGDQALFLSRDRWRAIGGFSTGPLLEDYRFVRQLRRQGTIAIASAAVMTSARRWQRRGVLQTTLLNQLILLAHHCGVSDQQLARWYR”, the protein production was “failed”.

For “MRGPGSASVRGYGQCKDTLHTSSPFHEAPASVRRPRTTGRVHTLGIRAPPPPRSQPEFLFSGNPFAPVSSVQRDAARRVSPRIPSLDQASRRPVAKLVVPGGNGFIGTEICRVAVQNGHEVAAFGRTGRPALTPARHPWVQDVEWRAADVFAPDAWRDLLDGADAVVHTIATIREHPDRNVTFDRVNAESALRAAEAAVAADVGAVVFLSVRDKPPLVPYAFLSAKRRAERALREDHPSLRTVTLCPNLVYGARKTGTPTLAAVLNQAQGMRPHPYATAEGRPLPVEFVAAAAVQAAVTSTMEGTLTVPQIDDIGRTSGLVDPNAASTPSLAPLLVGLGGTALGAWLLRRWRAS”, the protein production was “failed”.

Source: a protein production outcome set (Wang et al. 2014)
